For the test, the target named is prostate specific membrane antigen (PSMA) on LNCaP cells (human, UniProt Q04609). Nature of the test: ELISA on plates coated with LNCaP membrane preparation, purified antibody.

The values that follow come from patent publication US7666414B2, “Methods for treating prostate cancer using modified antibodies to prostate-specific membrane antigen” (Cornell Research Foundation, Inc., dated 2010).

Changes are numbered by the printed parent chain.

B1: deimmunized J415, heavy chain version 1 with light chain version 5 (antibody, V domains shown)
VH: EVKLEESGGGLVQPGGSMKISCKASGFTFSNYWMNWVRQTPEKGLEWVALIRSQSNNFATHYAESVKGRVIISRDDSKSSVYLQMNSLRAEDTAVYYCTRRWNNFWGQGTTVTVSS
VL: NIVMTQFPKSMSASAGERMTLTCKASENVGTYVSWYQQKPTQSPKMLIYGASNRFTGVPDRFSGSGSGTDFILTISSVQAEDLVDYYCGQSYTFPYTFGGGTKLEMK
For the molecule B1, the “fold change against the chimeric antibody” value came out at 2 fold less.

B2: deimmunized J415, heavy chain version 2 with light chain version 5 (antibody, V domains shown)
VH: B1 VH with K23V
VL: B1 VL
As for B2, the “fold change against the chimeric antibody” value stood at 2 fold less.
